Measurements: patent US20040005324A1

Assays:
Assay in all cases: cell-based or functional assay
[1] = target: RSV F glycoprotein of MARM v1269 (strain A2 escape mutant, substitution at aa 389) (respiratory syncytial virus strain A2), P03420
[2] = target: RSV F glycoprotein of MARM v1302A/6 (strain A2 escape mutant, substitutions at aa 241/421) (respiratory syncytial virus strain A2), P03420
[3] = target: RSV F glycoprotein of MARM v1302A/1 (strain A2 escape mutant, substitutions at aa 241/421) (respiratory syncytial virus strain A2), P03420
[4] = target: RSV F glycoprotein of MARM v1308F (strain A2 escape mutant, substitutions at aa 241/421) (respiratory syncytial virus strain A2), P03420

B1: human monoclonal Fab RSVF2-5 (Fab, V domains shown)
VH: LEESGGDLVQPGRSLRLSCSTSGFSFGDYPVNWFRQAPGKGLEWLGIVRSRLYGGTLQYAASVEGRFTISRDDSKSIAYLHMNSLKSEDTAVYYCGVPVANIDYWGQGTLVTVSSASTKGPSS
VL: LTQPHSVSESLGKTVTISCTRAGGRIASNYVQWYQQRPGSSPTTVIYEDNQRPFGVPDRFSGSIDTSSNSASLTISGLKTEDEADYYCQSYDSENPWVFGGGTKLTVLG
- Dose for 60% plaque reduction [1]: < 0.3 µg/mL
- Dose for 60% plaque reduction [2]: < 0.3 µg/mL
- Dose for 60% plaque reduction [3]: 1.4 µg/mL
- Dose for 60% plaque reduction [4]: 1 µg/mL
